Source: patent US20210095032A1 (SALUBRIS CHENGDU BIOTECH, published 2021)
Like-named read-outs stand apart in the source and are kept apart here.

Assays:
[1] = biological target: T1, biotin-labeled human PD-1 Fc protein (human, biotin-labeled (site not stated)); test: competition ELISA, antibody + biotin human PD-1-Fc on coated human PD-L1-Fc (competitor PD-L1-Fc)
T1 construct: also called PD-1-Fc-biotin
Method: (§1) The next day, plates were washed with wash buffer (PBS+0.05% Tween-20, PBST), and blocked with 5% non-fatty milk in PBST for 2 hours at 37° C. Plates were then washed again using wash buffer.
(§2) After incubation at 37° C. for 40 minutes, plates were washed for 4 times using wash buffer. […] Plates were washed again using wash buffer. Finally, TMB was added and the reaction was stopped using 1M H₂SO₄, and the absorbance was read at 450 nm. Data were analyzed using Graphpad Prism software and IC₅₀ values were reported.

[2] = biological target: T1, biotin-labeled human PD-1 Fc protein; test: capture ELISA, antibody captured on plate, biotin-labeled human PD-1 Fc in solution
Method: (§3) Plates were washed 4 times with wash buffer (PBS+0.05% Tween-20, PBST) and then blocked with 200 μl/well blocking buffer (5% w/v non-fatty milk in PBST) for 2 hours at 37° C. […] After a final wash, plates were incubated with 100 μl/well ELISA substrate TMB (Innoreagents). The reaction was stopped in 15 minutes at 25° C. with 50 μl/well 1M H₂SO₄, and the absorbance was read at 450 nm. Data were analyzed using Graphpad Prism software and EC₅₀ values were reported.

[3] = biological target: T1, biotin-labeled human PD-1 Fc protein; test: as above; remark: listed apart in the source
Method: as §3

[4] = biological target: T1, biotin-labeled human PD-1 Fc protein; test: as above; remark: listed apart in the source
Method: as §3

[5] = biological target: T1, biotin-labeled human PD-1 Fc protein; test: as above; remark: listed apart in the source
Method: as §3

[6] = biological target: T1, biotin-labeled human PD-1 Fc protein; test: competition ELISA, antibody + biotin human PD-1-Fc on coated human PD-L1-Fc (competitor PD-L1-Fc); remark: listed apart in the source
Method: as §1, §2

[7] = biological target: T1, biotin-labeled human PD-1 Fc protein; test: competition ELISA, antibody + biotin human PD-1 Fc on coated Nivolumab (competitor Nivolumab)
Method: (§4) The next day, plates were washed with wash buffer, and blocked with 5% non-fatty milk in PBST for 2 hours at 37° C. […] Plates were finally washed using wash buffer. TMB was added and the reaction was stopped using 1M H₂SO₄, and the absorbance was read at 450 nm. Data were analyzed using Graphpad Prism software and IC₅₀ values were reported.

[8] = biological target: T2, human PD-1 on PD-1 Effector Cell Line (Genscript, GS-J2/PD-1) (human, UniProt Q15116 25-288); test: cell-based or functional assay
[9] = biological target: T1, biotin-labeled human PD-1 Fc protein; test: competition ELISA, antibody + biotin human PD-1 Fc on coated Nivolumab (competitor Nivolumab); remark: listed apart in the source
Method: as §4

[10] = biological target: T2, human PD-1 on PD-1 Effector Cell Line …; test: cell-based or functional assay; remark: listed apart in the source
[11] = biological target: T3, recombinant human PD-1-his (Sino biological, #10377-H08H) (human, UniProt Q15116 25-167); test: SPR (Biacore), antibody captured, human PD-1-his flowed
T3 construct: Bought protein; also called Human PD-1-his protein; not shown: his tag
Source text: (§5) Briefly, goat anti-mouse IgG (GE healthcare, Cat #BR100839, Human Antibody Capture Kit) was covalently linked to a CMS chip (carboxy methyl dextran coated chip) via primary amines, using a standard amine coupling kit (GE healthcare, Pittsburgh, Pa., USA) provided by Biacore. Un-reacted moieties on the biosensor surface were blocked with ethanolamine. […] Then, recombinant human PD-1-his (Sino biological, #10377-H08H) or cynomolgus monkey PD-1-his protein (Acro biosystems, #PD-1-05223) in HBS EP buffer (provided by Biacore) was flowed onto the chip at a flow rate of 30 μL/min. The antigen-antibody association kinetics was followed for 2 minutes and the dissociation kinetics was followed for 10 minutes. The association and dissociation curves were fit to a 1:1 Langmuir binding model using BIA evaluation software.

[12] = biological target: T4, cynomolgus monkey PD-1-his protein (Acro biosystems, #PD-1-05223) (cynomolgus monkey, UniProt B0LAJ3 25-170); test: SPR (Biacore), antibody captured, cynomolgus PD-1-his flowed
T4 construct: Bought protein; also called Cynomolgus PD-1; Cynomolgus PD1
Source text: as §5

[13] = biological target: T1, biotin-labeled human PD-1 Fc protein; test: competition ELISA, antibody + biotin human PD-1 Fc on coated Nivolumab (competitor Nivolumab); remark: listed apart in the source
Method: as §4

[14] = biological target: T1, biotin-labeled human PD-1 Fc protein; test: capture ELISA, antibody captured on plate, biotin-labeled human PD-1 Fc in solution; remark: listed apart in the source
Method: as §3

[15] = biological target: T1, biotin-labeled human PD-1 Fc protein; test: as above; remark: listed apart in the source
Method: as §3

[16] = biological target: T1, biotin-labeled human PD-1 Fc protein; test: as above; remark: listed apart in the source
Method: as §3

[17] = biological target: T1, biotin-labeled human PD-1 Fc protein; test: as above; remark: listed apart in the source
Method: as §3

IC50 [1] [nM]	EC50 [2] [nM]	EC50 [3] [nM]	EC50 [4] [ng/mL]	EC50 [5] [ng/mL]	IC50 [6] [nM]	IC50 [7] [nM]	Cell-based functional assay (EC50, nM) [8] [nM]	IC50 [9] [nM]	Cell-based functional reporter assay (IC50, nM) [10] [nM]	Kd [11] [nM]	Kd [12] [nM]	IC50 [13] [nM]	EC50 [14] [ng/mL]	EC50 [15] [nM]	EC50 [16] [ng/mL]	EC50 [17] [ng/mL]	Binder
1.71	0.24	0.24	0.773	0.681	1.71	0.35	9.46	0.35	9.46	–	–	–	–	–	–	–	chimeric D2A4 antibody (antibody, human IgG1, kappa, V domains shown, Mouse variable domains cloned in frame to human IgG1 and kappa constant regions; also called chD2A4; ChD2A4) VH: EVKLVESGGGLVKPGGSLKLSCAASGFTFSSYTMSWVRQTPAKRLEWVATISGGGSNTYYPDSVKGRFTISRDNARNTLYLQMSSLRSEDTAMYYCARQAFYSNYWYFDVWGAGTTVTVSS VL: DIQMTQSPASQSASLGESVTITCLASQTIGTWLAWYQQTPGKSPQLLIYAATSLADGVPSRFSGSGSGTKFSFKISSLQAEDFASYYCQQVSSIPWTFGGGTKLEIRR
–	–	–	0.773	–	–	–	–	–	–	–	–	–	–	–	–	–	huD2A4-V5 (antibody, human IgG1, kappa, Humanized D2A4, human IgG1/kappa) heavy: not shown light: DIQMTQSPSSVSASVGDRVTITCLASQTIGTWLAWYQQKPGKSPKLLIYAATSLADGVPSRFSGSGSGTDFTLTISSLQPEDFATYYCQQVSSIPWTFGGGTKVEIKRTVAAPSVFIFPPSDEQLKSGTASVVCLLNNFYPREAKVQWKVDNALQSGNSQESVTEQDSKDSTYSLSSTLTLSKADYEKHKVYACEVTHQGLSSPVTKSFNRGEC
–	–	0.27	0.999	–	1.69	0.49	7.6	–	–	3.06	6.43	–	–	–	–	–	huD2A4-V6 (antibody, human IgG1, kappa, V domains shown, Humanized D2A4, human IgG1/kappa) VH: EVQLVESGGGLVQPGGSLRLSCAASGFTFSSYTMSWVRQAPGKGLEWVSTISGGGSNTYYPDSVKGRFTISRDNSKNTLYLQMNSLRAEDTAVYYCARQAFYSNYWYFDVWGKGTTVTVSS VL: DIQMTQSPSSVSASVGDRVTITCLASQTIGTWLAWYQQKPGKAPKLLIYAATSLADGVPSRFSGSGSGTDFTLTISSLQPEDFATYYCQQVSSIPWTFGGGTKVEIKR
–	–	0.45	0.268	0.351	0.42	–	–	–	–	–	–	3.79	0.27	0.21	1.37	0.365	Nivolumab (OPDIVO®) (antibody, V domains shown) VH: QVQLVESGGGVVQPGRSLRLDCKASGITFSNSGMHWVRQAPGKGLEWVAVIWYDGSKRYYADSVKGRFTISRDNSKNTLFLQMNSLRAEDTAVYYCATNDDYWGQGTLVTVSS VL: EIVLTQSPATLSLSPGERATLSCRASQSVSSYLAWYQQKPGQAPRLLIYDASNRATGIPARFSGSGSGTDFTLTISSLEPEDFAVYYCQQSSNWPRTFGQGTKVEIK
